Experiments:
[1] = molecular target: T1, extracellular domain of activin receptor type IIB (ActRIIBecd), biotinylated (Homo sapiens (Human), UniProt Q13705 27-117, amino-biotinylated with amine-PEG3-Biotin); experiment: BIAcore SPR, biotinylated ActRIIBecd on chip; SD ±10.27 nM
T1 construct: immobilised on a streptavidin-coated sensor chip; also called biotinylated ActRIIBecd; extracellular domain of ActRIIB
T1 sequence: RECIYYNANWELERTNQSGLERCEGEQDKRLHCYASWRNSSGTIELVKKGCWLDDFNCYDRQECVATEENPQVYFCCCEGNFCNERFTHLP
Procedure: (§1) Biosensor experiments. In one embodiment, experiments were performed on a BIAcore™ T100/T200 instrument (Pharmacia Biosensor AB) in the multichannel mode (serial flow path involving flow cells 1+2+3+4). Flow rate was 10 μl/min; temperature was 25° C.; and data were recorded at 2.5 points/s. All four segments of a sensor chip CMS were coated with streptavidin (Sigma) to a density of 2000 pg/mm² (2000 resonance units) by the aminocoupling procedure. ActRIIBecd (10 mg) and amine-PEG3-Biotin (10 mg, Pierce, Rockford, Ill.) were dissolved in 200 μl H₂O and 10 mg NaCNBH₃ was added to prepare biotinylated ActRIIBecd. The reaction mixture was heated at 70° C. for 24 h, after that a further 10 mg NaCNBH₃ was added and the reaction was heated at 70° C. for another 24 h. After cooling to room temperature, the mixture was desalted with the spin column (3,000 molecular weight cut off (MWCO)). […] Sensograms were recorded during flow of the analyte (the ActRIIBecd-associated polypeptides (i.e., domains) as previously described) first through flow cell 1 (control) then through flow cell 2 (biotinylated ActRIIBecd). […] The sensograms obtained at 1.11, 3.33, 10, 30, and 90 nM analyte were evaluated for equilibrium binding, association rate, and dissociation rate by using the programs supplied with the instrument (BIA evaluation 2.1; Software Handbook. 1995; Pharmacia Biosensor AB).

[2] = molecular target: T1, extracellular domain of activin …; experiment: BIAcore SPR, biotinylated ActRIIBecd on chip; SD ±12.78 nM
Procedure: as §1

[3] = molecular target: T1, extracellular domain of activin …; experiment: BIAcore SPR, biotinylated ActRIIBecd on chip; SD ±12.07 nM
Procedure: as §1

[4] = molecular target: T1, extracellular domain of activin …; experiment: BIAcore SPR, biotinylated ActRIIBecd on chip; SD ±14.78 nM
Procedure: as §1

[5] = molecular target: T1, extracellular domain of activin …; experiment: BIAcore SPR, biotinylated ActRIIBecd on chip; SD ±13.64 nM
Procedure: as §1

[6] = molecular target: T1, extracellular domain of activin …; experiment: BIAcore SPR, biotinylated ActRIIBecd on chip; SD ±12.74 nM
Procedure: as §1

[7] = molecular target: T1, extracellular domain of activin …; experiment: BIAcore SPR, biotinylated ActRIIBecd on chip; SD ±13.21 nM
Procedure: as §1

[8] = molecular target: T1, extracellular domain of activin …; experiment: BIAcore SPR, biotinylated ActRIIBecd on chip; SD ±11.20 nM
Procedure: as §1

[9] = molecular target: T1, extracellular domain of activin …; experiment: BIAcore SPR, biotinylated ActRIIBecd on chip; SD ±16.58 nM
Procedure: as §1

[10] = molecular target: T1, extracellular domain of activin …; experiment: BIAcore SPR, biotinylated ActRIIBecd on chip; SD ±13.03 nM
Procedure: as §1

[11] = molecular target: T1, extracellular domain of activin …; experiment: BIAcore SPR, biotinylated ActRIIBecd on chip; SD ±14.25 nM
Procedure: as §1

[12] = molecular target: T1, extracellular domain of activin …; experiment: BIAcore SPR, biotinylated ActRIIBecd on chip; SD ±12.01 nM
Procedure: as §1

[13] = molecular target: T1, extracellular domain of activin …; experiment: BIAcore SPR, biotinylated ActRIIBecd on chip; SD ±11.79 nM
Procedure: as §1

[14] = molecular target: T1, extracellular domain of activin …; experiment: BIAcore SPR, biotinylated ActRIIBecd on chip; SD ±13.24 nM
Procedure: as §1

[15] = molecular target: T1, extracellular domain of activin …; experiment: BIAcore SPR, biotinylated ActRIIBecd on chip; SD ±12.76 nM
Procedure: as §1

[16] = molecular target: T1, extracellular domain of activin …; experiment: BIAcore SPR, biotinylated ActRIIBecd on chip; SD ±13.42 nM
Procedure: as §1

[17] = molecular target: T1, extracellular domain of activin …; experiment: BIAcore SPR, biotinylated ActRIIBecd on chip; SD ±15.71 nM
Procedure: as §1

[18] = molecular target: T1, extracellular domain of activin …; experiment: BIAcore SPR, biotinylated ActRIIBecd on chip; SD ±16.51 nM
Procedure: as §1

B1: Recombinant polypeptide of clones 19 + 14 + 8 (designed binder)
chain: NSKDPKACCVPTELSAPSPLYLDENEKPVLKNYQDMVVHGCGCRVDFKDVGWNDHAVAPPGYHAFYCHGECPFPLADHLNSDNHAIVQTKVNSVGQAKRKGYKRLKSSCKRHPLY
Kd [1]: 14.1 nM

B2: Recombinant polypeptide of clones 15 + 21 (designed binder)
chain: VDFSDVGWNDWIVAPPGYHAFYCHGECPFPLADHLNSTNHAIVQTLVNSVNSKIPKACCVPTELSAISMLYLDENEKVVLKNYQDMVVEGCGCR
Kd [2]: 32.6 nM

B3: Recombinant polypeptide of clones 14 + 19 (designed binder)
chain: VDFKDVGWNDHAVAPPGYHAFYCHGECPFPLADHLNSDNHAIVQTKVNSVNSKDPKACCVPTELSAPSPLYLDENEKPVLKNYQDMVVHGCGCR
Kd [3]: 31 nM

B4: Recombinant polypeptide of clones 14 + 8 + 19 (designed binder)
chain: VDFKDVGWNDHAVAPPGYHAFYCHGECPFPLADHLNSDNHAIVQTKVNSVGQAKRKGYKRLKSSCKRHPLYNSKDPKACCVPTELSAPSPLYLDENEKPVLKNYQDMVVHGCGCR
Kd [4]: 17.6 nM

B5: Recombinant polypeptide of clones 8 + 14 (designed binder)
chain: GQAKRKGYKRLKSSCKRHPLYVDFKDVGWNDHAVAPPGYHAFYCHGECPFPLADHLNSDNHAIVQTKVNSV
Kd [5]: 35.1 nM

B6: Recombinant polypeptide of clones 10 + 15 (designed binder)
chain: AQAKHKQRKRLKSSCKRHPLYVDFSDVGWNDWIVAPPGYHAFYCHGECPFPLADHLNSTNHAIVQTLVNSV
Kd [6]: 31.3 nM

B7: Recombinant polypeptide of clones 15 + 10 + 21 (designed binder)
chain: VDFSDVGWNDWIVAPPGYHAFYCHGECPFPLADHLNSTNHAIVQTLVNSVAQAKHKQRKRLKSSCKRHPLYNSKIPKACCVPTELSAISMLYLDENEKVVLKNYQDMVVEGCGCR
Kd [7]: 15.1 nM

B8: Recombinant polypeptide of clones 10 + 15 + 21 (designed binder)
chain: AQAKHKQRKRLKSSCKRHPLYVDFSDVGWNDWIVAPPGYHAFYCHGECPFPLADHLNSTNHAIVQTLVNSVNSKIPKACCVPTELSAISMLYLDENEKVVLKNYQDMVVEGCGCR
Kd [8]: 17.2 nM

B9: Recombinant polypeptide of clones 21 + 15 (designed binder)
chain: NSKIPKACCVPTELSAISMLYLDENEKVVLKNYQDMVVEGCGCRVDFSDVGWNDWIVAPPGYHAFYCHGECPFPLADHLNSTNHAIVQTLVNSV
Kd [9]: 31 nM

B10: Recombinant polypeptide of clones 19 + 14 (designed binder)
chain: NSKDPKACCVPTELSAPSPLYLDENEKPVLKNYQDMVVHGCGCRVDFKDVGWNDHAVAPPGYHAFYCHGECPFPLADHLNSDNHAIVQTKVNSV
Kd [10]: 32.1 nM

B11: Recombinant polypeptide of clones 21 + 10 + 15 (designed binder)
chain: NSKIPKACCVPTELSAISMLYLDENEKVVLKNYQDMVVEGCGCRAQAKHKQRKRLKSSCKRHPLYVDFSDVGWNDWIVAPPGYHAFYCHGECPFPLADHLNSTNHAIVQTLVNSV
Kd [11]: 16.7 nM

B12: Recombinant polypeptide of clones 19 + 8 + 14 (designed binder)
chain: NSKDPKACCVPTELSAPSPLYLDENEKPVLKNYQDMVVHGCGCRGQAKRKGYKRLKSSCKRHPLYVDFKDVGWNDHAVAPPGYHAFYCHGECPFPLADHLNSDNHAIVQTKVNSV
Kd [12]: 16 nM

B13: Recombinant polypeptide of clones 10 + 21 (designed binder)
chain: AQAKHKQRKRLKSSCKRHPLYNSKIPKACCVPTELSAISMLYLDENEKVVLKNYQDMVVEGCGCR
Kd [13]: 27.3 nM

B14: Recombinant polypeptide of clones 8 + 14 + 19 (designed binder)
chain: GQAKRKGYKRLKSSCKRHPLYVDFKDVGWNDHAVAPPGYHAFYCHGECPFPLADHLNSDNHAIVQTKVNSVNSKDPKACCVPTELSAPSPLYLDENEKPVLKNYQDMVVHGCGCR
Kd [14]: 15.6 nM

B15: Recombinant polypeptide of clones 21 + 10 (designed binder)
chain: NSKIPKACCVPTELSAISMLYLDENEKVVLKNYQDMVVEGCGCRAQAKHKQRKRLKSSCKRHPLY
Kd [15]: 30.2 nM

B16: Recombinant polypeptide of clones 8 + 19 (designed binder)
chain: GQAKRKGYKRLKSSCKRHPLYNSKDPKACCVPTELSAPSPLYLDENEKPVLKNYQDMVVHGCGCR
Kd [16]: 31.1 nM

B17: Recombinant polypeptide of clones 19 + 8 (designed binder)
chain: NSKDPKACCVPTELSAPSPLYLDENEKPVLKNYQDMVVHGCGCRGQAKRKGYKRLKSSCKRHPLY
Kd [17]: 33.5 nM

B18: Recombinant polypeptide of clones 14 + 8 (designed binder)
chain: VDFKDVGWNDHAVAPPGYHAFYCHGECPFPLADHLNSDNHAIVQTKVNSVGQAKRKGYKRLKSSCKRHPLY
Kd [18]: 33.8 nM

— patent US20190071480A1 (Biogen, published 2019)
